Drawing on publication PMC5684232, this text covers percent of oligomers seen as double rings, stoichiometry N and dwell time of the bound state for 2 substances.

The target in assay [1] is human proteasome α7 subunit, wild type (self-assembled homo-tetradecamer) (human) (UniProt P25788). The experiment in a line: high-speed atomic force microscopy (HS-AFM); α7 alone adsorbed on bare mica; 20 mM Tris-HCl (pH 8.0), 150 mM NaCl; tapping mode.
For assay [2] the target is unchanged. The experiment in a line: high-speed atomic force microscopy (HS-AFM); α7 alone adsorbed on APTES-mica; 20 mM Tris-HCl (pH 8.0), 150 mM NaCl; tapping mode.
For assay [3] the target is unchanged. The experiment in a line: high-speed atomic force microscopy (HS-AFM); α7 adsorbed on APTES-mica, α6 added to the observation buffer to 1 μM; 20 mM Tris-HCl (pH 8.0), 150 mM NaCl; more than 20 min after the addition of α6; 10 fps, at most 1000 frames (100 s).

“And” between values parts separate entries of the source, which are not always exact repeats. Identical values can stand only once.

“human proteasome α7 subunit, wild type (self-assembled homo-tetradecamer) (from UniProt P25788 1-255) (natural protein)”: in assay [1], the percent of oligomers seen as double rings stood at 67%. In assay [2], the percent of oligomers seen as double rings turned out to be 21%; the stoichiometry N was 14 and 7.
In the case of “human proteasome α6 subunit, short isoform (from UniProt P25786 1-263) (natural protein)”, the dwell time of the bound state in assay [3] was greater than 100 s.
